Laboratory results reported in publication doi:10.1101/594168, “Pat1 activates late steps in mRNA decay by multiple mechanisms” (bioRxiv, 2019).

B1: MBP-Pat1 317-754 (domain or fragment, S. pombe, UniProt O42958 317-754, looked up)
chain: MTRSDKSFIARIQISQLMSEDPESDDFYYRVYSIIRGRKPSEEEASHFIQTYLGPSNNRRRGRRSENPMQKLQQQLQRLVSSAKERPKATQLSLEGALGKIAVNTVRTPRQLLNVKRPTEPASSNSSLNNFSGFSTKKDVLHAIEKVYDLLLDFEQALRKASTLETTDQEQIDTWKTTLSEKLESIWKALYINESLEASSKTRPPFISIISHPKGMRLLPRLFPHLSKEQQISILKVVVYNFDSLDIVLRGTFDVNGELPLDVVSEMSSFTQFIIPPLLTIVNELDLETINNLFSQLLNRTNAVYLIQTKIGLSFLTLFISRAEILKQSGTVNQNEKEEWENTFNVMFNRVKGHFSTVFPPPNARAYADESYPWEFLAACATAASSEQHFTLVSETRDRVLDNIITSKRAPSEIAVVRISNVNLFLNAMGLDARQLSA
notes: also called PatMC lacking the LAR; source: E. coli BL21(DE3)*, purified (Ni-NTA, SEC); not shown: His6, N-terminal, kept; MBP, N-terminal, kept
B2: MBP-Pat1 296-431 (domain or fragment, S. pombe, UniProt O42958 296-431, looked up)
chain: LDEKRQKLERDHMLMAQCAGLMTRSDKSFIARIQISQLMSEDPESDDFYYRVYSIIRGRKPSEEEASHFIQTYLGPSNNRRRGRRSENPMQKLQQQLQRLVSSAKERPKATQLSLEGALGKIAVNTVRTPRQLLNV
notes: also called construct containing most of the middle domain of Pat1; source: E. coli BL21(DE3)*, purified (Ni-NTA, SEC); not shown: His6, N-terminal, kept; MBP, N-terminal, kept
B3: MBP-PatMC (Pat1 residues 296-754) (domain or fragment, S. pombe, UniProt O42958 296-754, looked up)
chain: LDEKRQKLERDHMLMAQCAGLMTRSDKSFIARIQISQLMSEDPESDDFYYRVYSIIRGRKPSEEEASHFIQTYLGPSNNRRRGRRSENPMQKLQQQLQRLVSSAKERPKATQLSLEGALGKIAVNTVRTPRQLLNVKRPTEPASSNSSLNNFSGFSTKKDVLHAIEKVYDLLLDFEQALRKASTLETTDQEQIDTWKTTLSEKLESIWKALYINESLEASSKTRPPFISIISHPKGMRLLPRLFPHLSKEQQISILKVVVYNFDSLDIVLRGTFDVNGELPLDVVSEMSSFTQFIIPPLLTIVNELDLETINNLFSQLLNRTNAVYLIQTKIGLSFLTLFISRAEILKQSGTVNQNEKEEWENTFNVMFNRVKGHFSTVFPPPNARAYADESYPWEFLAACATAASSEQHFTLVSETRDRVLDNIITSKRAPSEIAVVRISNVNLFLNAMGLDARQLSA
notes: The MBP tag was not removed from constructs that contain the middle domain; also called SpPatMC; H6MBP-PatMC; source: E. coli BL21(DE3)*, purified (Ni-NTA, SEC); not shown: His6, N-terminal, kept; MBP, N-terminal, kept
B4: MBP-PatMC L457A/E461K (domain or fragment, S. pombe, UniProt O42958 296-754, looked up)
chain: LDEKRQKLERDHMLMAQCAGLMTRSDKSFIARIQISQLMSEDPESDDFYYRVYSIIRGRKPSEEEASHFIQTYLGPSNNRRRGRRSENPMQKLQQQLQRLVSSAKERPKATQLSLEGALGKIAVNTVRTPRQLLNVKRPTEPASSNSSLNNFSGFSTKKDVAHAIKKVYDLLLDFEQALRKASTLETTDQEQIDTWKTTLSEKLESIWKALYINESLEASSKTRPPFISIISHPKGMRLLPRLFPHLSKEQQISILKVVVYNFDSLDIVLRGTFDVNGELPLDVVSEMSSFTQFIIPPLLTIVNELDLETINNLFSQLLNRTNAVYLIQTKIGLSFLTLFISRAEILKQSGTVNQNEKEEWENTFNVMFNRVKGHFSTVFPPPNARAYADESYPWEFLAACATAASSEQHFTLVSETRDRVLDNIITSKRAPSEIAVVRISNVNLFLNAMGLDARQLSA
notes: also called SpPatMC L457A/E461K; Mut; source: E. coli BL21(DE3)*, purified (Ni-NTA, SEC); not shown: His6, N-terminal, kept; MBP, N-terminal, kept

Each binder was assayed against T1, Lsm1-7 complex (S. pombe, UniProt P87173 1-140; O94408 1-96; Q9Y7M4 1-93; O14352 1-121; O42978 1-80; Q9UUI1 1-75; …) (assay: pull-down; 10 µM MBP-tagged Pat1 construct and 10 µM Lsm1-7 mixed 15 min at room temperature, bound to amylose beads, washed four times, eluted with 10 mM maltose; SEC buffer (20 mM HEPES pH 7, 150 mM NaCl, 1 mM DTT); SDS-PAGE, Instant Blue stain). Conditions: both partners purified.
T1 construct: Lsm1, S. pombe; Lsm2, S. pombe; Lsm3, S. pombe; Lsm4, S. pombe; Lsm5, S. pombe; Lsm6, S. pombe; Lsm7, S. pombe; Heteroheptameric ring formed beforehand; the His6-TEV tag stood on the N-terminus of Lsm1 and was cleaved with TEV protease; also called Lsm1-7 ring; source: E. coli BL21(DE3)*, co-expressed from a polycistronic gene, purified (Ni-NTA, heparin, SEC); not shown: His6, N-terminal, …

Binding result, binds:
B1
B2
B3
B4
